Measured values as given in paper PMC5829251, “NAD^+ analog reveals PARP-1 substrate-blocking mechanism and allosteric communication from catalytic center to DNA-binding domains” (Nature Communications, 2018).

Target: PARP-1 WT (human) (UniProt P09874)
Experiment: fluorescence polarization
Conditions: 250 mM NaCl, FP affinity: 12 mM Hepes pH 8.0, 250 mM NaCl, 4% glycerol, 5.7 mM beta-mercaptoethanol, 0.05 mg/ml BSA, RT, 5 nM probe, FP competition: same but 60 mM KCl, 8 mM

Chain of PARP-1 WT (human) (P09874 whole entry): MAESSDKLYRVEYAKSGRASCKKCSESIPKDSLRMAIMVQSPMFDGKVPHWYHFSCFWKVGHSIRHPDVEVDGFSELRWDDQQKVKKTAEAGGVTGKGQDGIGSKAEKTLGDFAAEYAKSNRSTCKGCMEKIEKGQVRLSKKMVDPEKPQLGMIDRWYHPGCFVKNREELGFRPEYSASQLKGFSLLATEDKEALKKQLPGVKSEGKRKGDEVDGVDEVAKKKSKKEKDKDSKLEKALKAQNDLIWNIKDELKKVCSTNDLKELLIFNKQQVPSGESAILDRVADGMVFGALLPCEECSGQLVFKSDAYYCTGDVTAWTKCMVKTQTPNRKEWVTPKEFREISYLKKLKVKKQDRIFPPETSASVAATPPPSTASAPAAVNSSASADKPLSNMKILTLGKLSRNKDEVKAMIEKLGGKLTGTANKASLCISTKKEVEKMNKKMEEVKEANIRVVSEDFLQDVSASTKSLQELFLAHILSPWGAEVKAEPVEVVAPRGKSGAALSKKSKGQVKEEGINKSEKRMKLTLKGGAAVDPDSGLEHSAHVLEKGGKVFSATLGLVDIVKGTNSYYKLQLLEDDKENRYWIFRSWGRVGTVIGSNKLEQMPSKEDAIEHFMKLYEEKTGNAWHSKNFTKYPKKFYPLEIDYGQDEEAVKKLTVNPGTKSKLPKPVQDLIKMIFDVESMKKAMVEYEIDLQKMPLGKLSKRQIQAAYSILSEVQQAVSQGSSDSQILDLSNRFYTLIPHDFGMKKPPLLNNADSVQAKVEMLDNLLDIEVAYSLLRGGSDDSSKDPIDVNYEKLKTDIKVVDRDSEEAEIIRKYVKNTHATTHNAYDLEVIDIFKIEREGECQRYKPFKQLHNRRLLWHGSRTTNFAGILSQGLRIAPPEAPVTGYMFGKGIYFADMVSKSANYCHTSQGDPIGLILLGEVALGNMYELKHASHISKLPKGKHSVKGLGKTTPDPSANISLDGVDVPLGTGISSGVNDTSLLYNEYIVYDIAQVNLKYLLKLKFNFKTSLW

“GCTGAGCTTCTGGTGAAGCTCAGCTCGCGGCAGCTGGTGCTGCCGCGA [nick dumbbell DNA, FAM]” gave a binding signal (fold higher affinity than without BAD) (100 uM BAD) of 10 and a binding signal (100 uM benzamide, scale: fold) of 1.
